B1: Soluble human ActRIIB-hFc (Fc fusion, UniProt Q13705 19-133, looked up)
chain: SGRGEAETRECIYYNANWELERTNQSGLERCEGEQDKRLHCYASWRNSSGTIELVKKGCWLDDFNCYDRQECVATEENPQVYFCCCEGNFCNERFTHLPEAGGPEVTYEPPPTAP
notes: signal peptide in the construct; extracellular domain (1-133) of the human ActRIIB receptor (ACVR2B), in-frame fusion with human IgG1 Fc-domain; also called ActR2B-hFc; source: produced in Chinese hamster ovary (CHO) cells
B2: Human activin A (ligand, UniProt P08476 311-426, looked up)
chain: GLECDGKVNICCKKQFFVSFKDIGWNDWIIAPSGYHANYCEGECPSHIAGTSGSSLSFHSTVINHYRMRGHSPFANLKSCCVPTKLRPMSMLYYDDGQNIIKKDIQNMIVEECGCS
notes: human activin A (inhibin beta A chain), purchased from R&D Systems; source: bought: R&D Systems
B3: Human growth and differentiation factor 11 (ligand, UniProt O95390 299-407, looked up)
chain: NLGLDCDEHSSESRCCRYPLTVDFEAFGWDWIIAPKRYKANYCSGQCEYMFMQKYPHTHLVQQANPRGSAGPCCTPTKMSPINMLYFNDKQQIIYGKIPGMVVDRCGCS
notes: human growth and differentiation factor 11 (GDF11), purchased from R&D Systems; also called GDF11; GDF-11; source: bought: R&D Systems

Tests used:
[1] = molecular target: B2; assay: cell-based or functional assay
[2] = molecular target: T1, Human myostatin (human, UniProt O14793 267-375); assay: cell-based or functional assay
T1 sequence (looked up): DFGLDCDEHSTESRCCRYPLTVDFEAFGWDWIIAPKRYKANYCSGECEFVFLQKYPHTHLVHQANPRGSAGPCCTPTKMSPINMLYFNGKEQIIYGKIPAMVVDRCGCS

[3] = molecular target: B3; assay: cell-based or functional assay
[4] = molecular target: B2; assay: SPR; Biacore T200, CM5 chip, 25 °C; ActRIIB-hFc captured through its Fc (32-39 RU) by immobilised goat anti-human Fcγ antibody; ligands injected at 40 to 0.78 nM; HBS-T (10 mM HEPES, 150 mM NaCl, 3 mM EDTA, 0.05 % P20, 10 mg/ml carboxymethyldextran, 0.5 mg/ml BSA, pH 7.4); global fit to a 1:1 model; conditions: both partners purified
[5] = molecular target: B1; assay: as above; conditions: both partners purified

Binder	IC50 of inhibition of Smad2/3 luciferase activity in A204/Smad2/3/Luc cells stimulated with a constant 0.4 nM activin A [1] [nM]	IC50 of inhibition of Smad2/3 luciferase activity in A204/Smad2/3/Luc cells stimulated with a constant 1 nM myostatin [2] [nM]	IC50 of inhibition of Smad2/3 luciferase activity in A204/Smad2/3/Luc cells stimulated with a constant 0.4 nM GDF11 [3] [nM]	Kd [4] [nM]	koff [4] [s⁻¹]	kon [4] [M⁻¹ s⁻¹]	T1/2 [5] [min]	Kd [5] [nM]	koff [5] [s⁻¹]	kon [5] [M⁻¹ s⁻¹]
B1	1.2	0.57	0.46	0.0866	7.94e-05	917000	–	–	–	–
B2	–	–	–	–	–	–	146	–	–	–
B3	–	–	–	–	–	–	112	0.014	0.000103	7.38e+06

Source: article PMC4600334, “Myostatin blockade with a fully human monoclonal antibody induces muscle hypertrophy and reverses muscle atrophy in young and aged mice” (Skeletal Muscle, 2015)
